From publication PMC3936769, “Back to translation: removal of aIF2 from the 5′-end of mRNAs by translation recovery factor in the crenarchaeon Sulfolobus solfataricus” (Nucleic Acids Research, 2013)
Blank lines part the entries; values can stand above or below the binder they belong to.

Biological target: T1, aIF2-γ subunit of translation initiation factor aIF2, recombinant, His-tagged (Sulfolobus solfataricus, UniProt Q980A5 1-415)
T1 construct: translation initiation factor 2 subunit gamma (aIF2-γ), Sulfolobus solfataricus
T1 sequence (looked up): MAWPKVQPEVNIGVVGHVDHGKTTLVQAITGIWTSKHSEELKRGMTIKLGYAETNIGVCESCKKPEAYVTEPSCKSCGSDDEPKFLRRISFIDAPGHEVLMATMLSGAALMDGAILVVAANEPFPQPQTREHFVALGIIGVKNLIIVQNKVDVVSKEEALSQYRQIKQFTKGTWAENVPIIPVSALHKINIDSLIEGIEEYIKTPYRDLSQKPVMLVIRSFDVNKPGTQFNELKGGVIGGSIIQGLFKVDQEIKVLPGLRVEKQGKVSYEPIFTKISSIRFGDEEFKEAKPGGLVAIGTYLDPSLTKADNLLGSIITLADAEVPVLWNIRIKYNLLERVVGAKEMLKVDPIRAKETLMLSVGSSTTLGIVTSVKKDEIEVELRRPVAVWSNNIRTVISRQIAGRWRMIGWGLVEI
Assay: native gel or EMSA; acidic native polyacrylamide gel electrophoresis of the individual aIF2 subunits and the trimeric complex (Supplementary Figure S3, lanes 1-4)
Details: both partners purified

binding result: binds
B1: aIF2-β subunit of translation initiation factor aIF2, recombinant, His-tagged (natural protein, Sulfolobus solfataricus, UniProt Q97W59 1-139, looked up)
chain: MSSEKEYVEMLDRLYSKLPEKGRKEGTQSLPNMIILNIGNTTIIRNFAEYCDRIRREDKICMKYLLKELAAPGNVDDKGELVIQGKFSSQVINTLMERFLKAYVECSTCKSLDTILKKEKKSWYIVCLACGAQTPVKPL
notes: translation initiation factor 2 subunit beta (aIF2-β), Sulfolobus solfataricus; also called aIF2-ß

binding result: binds
B2: aIF2-α subunit of translation initiation factor aIF2, recombinant, His-tagged (natural protein, Sulfolobus solfataricus, UniProt Q97Z79 1-266, looked up)
chain: MIYSRSKLPSEGEILIATVKQVFDYGSYVSLDEYGGLQAFLPWSEVSSKWVKNIRDVLKENRKVIVKVIRVDRRKGTVDVSLKKVTDDERRKKNLQWKKIQRLDKILELVSQKLKLSEKDAWEQVAWKLEAKYGDPITAIEKAVKEGEKILIDAGVPEIWVKPLLEEASKHAEERKVKMSGLITVRTNEPLGVEKIKEVISKALENIEQDYESLLNIKIYTIGAPRYRVDVVGTNPKEASEALNQIISNLIKIGKEENVDISVVKK
notes: translation initiation factor 2 subunit alpha (aIF2-α), Sulfolobus solfataricus
